Measured values as given in patent publication US20110104713A1, “PRODUCTS AND PROCESSES FOR MODULATING PEPTIDE-PEPTIDE BINDING DOMAIN INTERACTIONS” (priority 2002, published 2011).
Non-standard residues stand in square brackets, D forms with d. No end group written: not given here. pT = C[C@@H](OP(=O)(O)O)[C@H](N)C(=O)O

T1: BRCTtide-7pS, GAAYDI-pS-… (Artificial Sequence)
T1 sequence (peptide, phosphoserine (pS) at position 7): GAAYDISQVFPFAKKK

T2: BRCTtide-7pT, GAAYDI-pT-… (Artificial Sequence)
T2 sequence (peptide, phosphothreonine (pT) at position 7): GAAYDITQVFPFAKKK

B1: GST-hPlk2 PBD (human Plk2 residues 355-685) (protein)
chain: HLSSPAKNFFKKAAAALFGGKKDKARYIDTHNRVSKEDEDIYKLRHDLKKTSITQQPSKHRTDEELQPPTTTVARSGTPAVENKQQIGDAIRMIVRGTLGSCSSSSECLEDSTMGSVADTVARVLRGCLENMPEADCIPKEQLSTSFQWVTKWVDYSNKYGFGYQLSDHTVGVLFNNGAHMSLLPDKKTVHYYAELGQCSVFPATDAPEQFISQVTVLKYFSHYMEENLMDGGDLPSVTDIRRPRLYLLQWLKSDKALMMLFNDGTFQVNFYHDHTKIIICSQNEEYLLTYINEDRISTTFRLTTLLMSGCSSELKNRMEYALNMLLQRCN
B2: GST-Cdc5p PBD (Saccharomyces cerevisiae Cdc5p residues 357-705) (protein)
chain: EDIPEEQSLVNFKDCMEKSLLLESMSSDKIQRQKRDYISSIKSSIDKLEEYHQNRPFLPHSLSPGGTKQKYKEVVDIEAQRRLNDLAREARIRRAQQAVLRKELIATSTNVIKSEISLRILASECHLTLNGIVEAEAQYKMGGLPKSRLPKIKHPMIVTKWVDYSNKHGFSYQLSTEDIGVLFNNGTTVLRLADAEEFWYISYDDREGWVASHYLLSEKPRELSRHLEVVDFFAKYMKANLSRVSTFGREEYHKDDVFLRRYTRYKPFVMFELSDGTFQFNFKDHHKMAISDGGKLVTYISPSHESTTYPLVEVLKYGEIPGYPESNFREKLTLIKEGLKQKSTIVTVD
B3: GST-BRCA1 tandem BRCT domains (residues 1634-1863) (protein)
chain: REKPELTASTERVNKRMSMVVSGLTPEEFMLVYKFARKHHITLTNLITEETTHVVMKTDAEFVCERTLKYFLGIAGGKWVVSYFWVTQSIKERKMLNEHDFEVRGDVVNGRNHQGPKRARESQDRKIFRGLEICCYGPFTNMPTDQLEWMVQLCGASVVKELSSFTLGTGVHPIVVVQPDAWTEDNGFHAIGQMCEAPVVTREWVLDSVALYQCQELDTYLIPQIPHSHY
B4: GST-hPlk3 PBD (human Plk3 residues 335-646) (protein)
chain: TPPNPARSLFAKVTKSLFGRKKKSKNHAQERDEVSGLVSGLMRTSVGHQDARPEAPAASGPAPVSLVETAPEDSSPRGTLASSGDGFEEGLTVATVVESALCALRNCIAFMPPAEQNPAPLAQPEPLVWVSKWVDYSNKFGFGYQLSSRRVAVLFNDGTHMALSANRKTVHYNPTSTKHFSFSVGAVPRALQPQLGILRYFASYMEQHLMKGGDLPSVEEVEVPAPPLLLQWVKTDQALLMLFSDGTVQVNFYGDHTKLILSGWEPLLVTFVARNRSACTYLASHLRQLGCSPDLRQRLRYALRLLRDRSPA
B5: GST-PTIP tandem BRCT domains (residues 550-757) (protein)
chain: TPELTPFVLFTGFEPVQVQQYIKKLYILGGEVAESAQKCTHLIASKVTRTVKFLTAISVVKHIVTPEWLEECFRCQKFIDEQNYILRDAEAEVLFSFSLEESLKRAHVSPLFKAKYFYITPGICPSLSTMKAIVECAGGKVLSKQPSFRKLMEHKQNSSLSEIILISCENDLHLCREYFARGIDVHNAEFVLTGVLTQTLDYESYKFN

Assays:
[1] = biological target: degenerate peptide library MAXXXXpTPXXXXAKKK (SEQ ID NO: 46); assay: GST-PBD on glutathione beads, oriented peptide library screening
[2] = biological target: degenerate peptide library MAXXXXSpTXXXXAKKK (SEQ ID NO: 48); assay: as above
[3] = biological target: degenerate peptide library Met-Ala-X-X-X-X-pSer-X-X-X-X-X-Ala-Lys-Lys-Lys (SEQ ID NO: 58); assay: GST-(BRCT)2 on glutathione beads, soluble degenerate library, Edman sequencing of bound peptides
[4] = biological target: degenerate peptide library MAXXXXpTXXXXAKKK (SEQ ID NO: 47); assay: as above
[5] = biological target: degenerate peptide library GAXXXXpSXXFXXAYKKK (SEQ ID NO: 59); assay: as above
[6] = biological target: degenerate peptide library GAXXXB(pS/pT)QJXXXAKKK (SEQ ID NO: 62); assay: as above
[7] = biological target: T1, BRCTtide-7pS, GAAYDI-pS-… (Artificial Sequence); assay: isothermal titration calorimetry, peptide injected into GST-BRCA1 BRCT domains
[8] = biological target: GST-Plk1 (full-length), prepared in SF9 cells (human)
[9] = biological target: T1, BRCTtide-7pS, GAAYDI-pS-… (Artificial Sequence); assay: isothermal titration calorimetry, peptide injected into GST-PTIP BRCT domains
[10] = biological target: T2, BRCTtide-7pT, GAAYDI-pT-… (Artificial Sequence); assay: as above

| Binder | selectivity ratio, Ser at pThr-1 [1] | selectivity ratio, Pro at pThr+1 [2] | selectivity ratio, Phe at pSer+3 [3] | selectivity ratio, Phe at (pSer/pThr)+3 [6] | further results |
| --- | --- | --- | --- | --- | --- |
| B1 | 7.5 | 1.7 |  |  |  |
| B2 | 5.3 | 1.4 |  |  |  |
| B3 |  |  | 2.4 | 7.5 | selectivity ratio, Phe at pThr+3 [4]: 1.9; selectivity ratio, Phe at pSer+1 [5]: 2.1; Kd [7]: 400 nM |
| B4 | 3 | 1.6 |  |  |  |
| MAGPMQS[pT]PLNGAKK [PoloBoxtide-optimal, MAGPMQ-S-pT-P-LNGAKK] |  |  |  |  | Plk1 kinase activity towards casein (32P incorporation, SDS-PAGE/autoradiography) [8]: 2.6 fold |
| B5 |  |  | 2.3 | 7 | selectivity ratio, Ile at pThr-1 [4]: 2.1; selectivity ratio, Ile at pSer+5 [5]: 1.9; Kd [9]: 280 nM; Kd [10]: 14300 nM |
